In patent publication US20150098945A1 (Daiichi Sankyo, published 2015):

B1: humanized MAb1 antibody H-2143 (antibody, human IgG2, kappa, V domains shown)
VH: EVQLVESGGGLVQPGGSLRLSCAASGFTFSTYAMSWVRQAPGKRLEWVATISQGGTYTYYPDSVKGRFTISRDNAKNTLYLQMNSLRAEDTAVYYCARLIYYDYLDYWGQGTLVTVSS
VL: DIVMTQSPLSLPVTLGEPASISCRSSQSLENENKNLYLNWYLQKPGQSPQLLIYRVSNRFSGVPDRFSGSGSGTDFTLKISRVEAEDVGVYYCLQVTHVPWTFGPGTKVDIKR
notes: Human IgG2 / kappa constant regions; also called hMAb1-H4-type heavy chain + hMAb1-L2-type light chain
B2: anti-ROBO4 mouse monoclonal antibody MAb1 (antibody, mouse IgG1, V domains shown)
VH: EVQLVESGGGLVKPGGSLKLSCAASGFTFSTYAMSWVRQTPEKRLEWVATISNGGTYTYYPDSVKGRFTISRDNAENTLYLQMSSLRSEDTAMYFCARLIYYDYLDYWGHGTTLTVSS
VL: DAVMTQTPLSLPVSLGDQASISCRSSQSLENSNGNTYLNWYFQKPGQSPQLLIYRVSNRFSGVLDRFSGSGSGTDFTLKISRVEAEDFGVYFCLQVTHVPWTFGGGTKLEIKR
notes: Mouse IgG1 (gamma1), kappa light chain, purified from hybridoma supernatant; also called parent antibody MAb1

Assays:
[1] = biological target: T1, N-terminal FLAG-tagged cynomolgus monkey ROBO4, cynoROBO4-2 (pCI-FLAG-cynoROBO4-2) (cynomolgus monkey, UniProt Q8WZ75 28-1007 (human entry)); assay: flow cytometry (FC500), HEK293 cells transfected with pCI-FLAG-cynoROBO4-2, antibody at 10 µg/mL, FITC goat anti-human IgG Fc; control histogram IgG (human IgG)
T1 chain: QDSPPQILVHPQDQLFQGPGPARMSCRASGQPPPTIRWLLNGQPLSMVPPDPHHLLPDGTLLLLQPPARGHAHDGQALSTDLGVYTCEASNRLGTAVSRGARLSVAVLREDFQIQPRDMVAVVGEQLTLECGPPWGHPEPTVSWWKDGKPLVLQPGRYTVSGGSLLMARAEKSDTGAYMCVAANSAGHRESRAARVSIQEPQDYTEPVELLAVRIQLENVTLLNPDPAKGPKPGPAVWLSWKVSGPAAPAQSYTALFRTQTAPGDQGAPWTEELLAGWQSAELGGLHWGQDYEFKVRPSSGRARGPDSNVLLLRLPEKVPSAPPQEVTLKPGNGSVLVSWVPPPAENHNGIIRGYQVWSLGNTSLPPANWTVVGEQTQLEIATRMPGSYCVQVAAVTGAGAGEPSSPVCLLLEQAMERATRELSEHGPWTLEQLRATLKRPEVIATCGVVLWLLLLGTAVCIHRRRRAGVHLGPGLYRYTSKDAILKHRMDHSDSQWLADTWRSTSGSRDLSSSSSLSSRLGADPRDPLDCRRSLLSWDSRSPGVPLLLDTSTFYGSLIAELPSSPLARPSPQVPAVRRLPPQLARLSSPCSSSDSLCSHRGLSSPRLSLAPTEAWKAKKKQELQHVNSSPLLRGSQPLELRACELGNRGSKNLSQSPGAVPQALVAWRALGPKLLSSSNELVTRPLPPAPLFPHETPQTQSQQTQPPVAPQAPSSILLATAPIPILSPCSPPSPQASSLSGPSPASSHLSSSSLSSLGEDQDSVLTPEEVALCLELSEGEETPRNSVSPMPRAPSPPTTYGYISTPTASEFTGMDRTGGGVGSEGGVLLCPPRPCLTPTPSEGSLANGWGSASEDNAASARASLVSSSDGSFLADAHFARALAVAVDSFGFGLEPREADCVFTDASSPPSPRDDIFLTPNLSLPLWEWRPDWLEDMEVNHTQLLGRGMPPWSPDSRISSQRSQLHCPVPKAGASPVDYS

[2] = biological target: T2, N-terminal FLAG-tagged human ROBO4 extracellular region/domain deletion variant hROBO4-132 (human, UniProt Q8WZ75 132-1007); assay: flow cytometry, HEK293 cells transfected with pCI-FLAG-hROBO4-132, antibody at 10 µg/mL, anti-mouse IgG FITC; control histogram IgG (Mouse IgG2a)
T2 construct: On transfected HEK293 cells; also called pCI-FLAG-hROBO4-132; pCI-hROBO4-132
T2 sequence: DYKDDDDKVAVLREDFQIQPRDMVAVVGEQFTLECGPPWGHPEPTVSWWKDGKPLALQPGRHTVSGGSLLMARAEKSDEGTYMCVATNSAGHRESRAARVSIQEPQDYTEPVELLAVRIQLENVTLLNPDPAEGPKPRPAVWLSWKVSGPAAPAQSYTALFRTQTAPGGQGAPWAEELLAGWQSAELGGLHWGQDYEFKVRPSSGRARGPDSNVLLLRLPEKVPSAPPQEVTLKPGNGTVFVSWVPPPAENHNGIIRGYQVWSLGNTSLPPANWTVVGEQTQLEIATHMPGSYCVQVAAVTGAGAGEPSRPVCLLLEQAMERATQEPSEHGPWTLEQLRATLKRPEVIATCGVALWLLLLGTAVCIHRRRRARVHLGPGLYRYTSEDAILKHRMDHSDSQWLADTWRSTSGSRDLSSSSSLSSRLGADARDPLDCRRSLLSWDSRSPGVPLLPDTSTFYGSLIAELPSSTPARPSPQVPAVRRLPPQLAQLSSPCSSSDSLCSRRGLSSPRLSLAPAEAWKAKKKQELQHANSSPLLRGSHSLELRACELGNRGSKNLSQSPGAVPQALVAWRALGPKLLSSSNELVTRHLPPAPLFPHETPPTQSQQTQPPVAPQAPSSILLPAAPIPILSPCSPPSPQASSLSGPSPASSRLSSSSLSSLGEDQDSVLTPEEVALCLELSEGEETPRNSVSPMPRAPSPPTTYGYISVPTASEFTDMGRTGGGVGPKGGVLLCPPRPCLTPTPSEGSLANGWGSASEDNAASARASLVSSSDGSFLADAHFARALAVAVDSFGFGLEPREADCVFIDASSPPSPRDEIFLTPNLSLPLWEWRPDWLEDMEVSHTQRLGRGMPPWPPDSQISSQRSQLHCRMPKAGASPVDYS
Description: HEK293 cells were inoculated at a concentration of 1.5×10⁶ cells/dish to a 60-mm dish (manufactured by Corning Inc.) and cultured overnight in a DMEM medium containing 10% FBS at 37° C. under 5% CO₂ conditions. […] On the next day, the expression vector-transfected cells were treated with TrypLE Express (manufactured by Life Technologies Corp.), washed with PBS containing 5% FBS, and then suspended in PBS containing 5% FBS. The obtained cell suspension was used in flow cytometry analysis.
Each cell suspension prepared in 4)-5-1 was centrifuged, and the supernatant was removed. Then, MAb1, a positive control Monoclonal ANTI-FLAG M2 antibody produced in mouse, or a negative control Mouse IgG2a was added at a concentration of 10 μg/mL to 2×10⁵ expression vector-transfected cells, and the resulting suspension was left standing at 4° C. for 1 hour. The cells were washed once with PBS containing 5% FBS. Then, Anti-Mouse IgG FITC conjugate diluted 1000-fold with PBS containing 5% FBS was added thereto, and the resulting suspension was left standing at 4° C. for 1 hour. […] Data was analyzed using Flowjo. The histogram of FITC fluorescence intensity was prepared. The antibody was determined to bind to a cell when the histogram of MAb1 was shifted to a stronger fluorescence intensity region compared with the histogram of the negative control Mouse IgG2a. […]

Binder | binding result [1] | binding result [2]
B1 | binds | 
B2 |  | binds
